This note sets out measurements from patent US20260250363A1 (AP BIOSCIENCES, published 2026).

Assay [1] addresses SARS-CoV-2 Spike Trimer, His Tag (BA.4/Omicron) (MALS verified) (AcroBiosystems, SPN-C5229) (SARS-CoV-2, UniProt P0DTC2 16-1213). Put plainly: BLI (ForteBio), mAb on AHC sensor, spike in solution.
Assay [2] addresses Recombinant SARS-CoV-2 BA.2 Spike (GCN4-IZ) His Protein, CF (R&D, 11109-CV) (SARS-CoV-2, UniProt P0DTC2 16-1211). Described as above.
Assay [3] deals with SARS-CoV-2 Spike Trimer, His Tag (BA.5/Omicron) (MALS verified) (AcroBiosystems, SPN-C522e) (SARS-CoV-2, UniProt P0DTC2 16-1213). The description is as above.
Assay [4] concerns the target T1, SARS-CoV-2 B.1.1.529 Spike Protein (Omicron) (SARS-CoV-2, UniProt P0DTC2 16-1211). Put plainly: direct ELISA on coated spike, single dose (axis label 30nm).
Assay [5] concerns the target T2, SARS-CoV-2 Spike Protein, wild type (R&D, Cat. #10549-CV) (SARS-CoV-2, UniProt P0DTC2 16-1211). Description: direct ELISA on coated spike.
In assay [6] the target is T3, SARS-CoV-2 C.37 Spike His Protein (R&D, Cat. #10887-CV) (SARS-CoV-2, UniProt P0DTC2 16-1211). Put plainly: direct ELISA on coated spike.
The target of assay [7] is T4, SARS-CoV-2 AY.1 Spike Protein (R&D, Cat. #10922-CV) (SARS-CoV-2, UniProt P0DTC2 16-1211). Put plainly: BLI (ForteBio), mAb on AHC sensor, spike in solution.
Assay [8] addresses T2, SARS-CoV-2 Spike Protein, wild type …. The description is as above.
For assay [9], the target named is T3, SARS-CoV-2 C.37 Spike His Protein (R&D, …). The description is as above.
The target is the same in assay [10]. Put plainly: competition ELISA: blocks biotin-ACE2 binding to coated spike.
Assay [11] deals with T2, SARS-CoV-2 Spike Protein, wild type …. The description is as above.
Assay [12] concerns the target T4, SARS-CoV-2 AY.1 Spike Protein (R&D, …). Put plainly: direct ELISA on coated spike.
The target of assay [13] is T2, SARS-CoV-2 Spike Protein, wild type …. Description: competition ELISA: blocks biotin-ACE2 binding to coated spike. The source holds these as a separate data set.
The target in assay [14] is T4, SARS-CoV-2 AY.1 Spike Protein (R&D, …). The assay is described as above.
Assay [15] has the same target. Described as above. The source holds these as a separate data set.
The target of assay [16] is T3, SARS-CoV-2 C.37 Spike His Protein (R&D, …). The assay is described as above. This is another data set of the same source.
The target in assay [17] is T1, SARS-CoV-2 B.1.1.529 Spike Protein …. Description: direct ELISA on coated spike.
The target in assay [18] is T5, SARS-CoV-2 C.37 Spike His Protein (R&D, Cat. #10887-CV) (SARS-CoV-2, UniProt P0DTC2 16-1211).
The target of assay [19] is T6, SARS-CoV-2 Spike Protein, wild type (R&D, Cat. #10549-CV) (SARS-CoV-2, UniProt P0DTC2 16-1211).
For assay [20], the target named is T6, SARS-CoV-2 Spike Protein, wild type …. Put plainly: direct ELISA on coated spike. This is another data set of the same source.
For assay [21], the target named is T5, SARS-CoV-2 C.37 Spike His Protein (R&D, …). Description: direct ELISA on coated spike. The source holds these as a separate data set.
In assay [22] the target is T7, SARS-CoV-2 B.1.617.2 Spike Protein (R&D, Cat. #10878-CV) (SARS-CoV-2, UniProt P0DTC2 16-1211). Description: direct ELISA on coated spike.
In assay [23] the target is T6, SARS-CoV-2 Spike Protein, wild type …. Description: BLI (ForteBio), mAb on AHC sensor, spike in solution. The source holds these as a separate data set.
The target in assay [24] is T8, SARS-CoV-2 AY.1 Spike Protein (R&D, Cat. #10922-CV) (SARS-CoV-2, UniProt P0DTC2 16-1211). The description is as above. The source holds these as a separate data set.
Assay [25] addresses T1, SARS-CoV-2 B.1.1.529 Spike Protein …. Described as above.
The target of assay [26] is T7, SARS-CoV-2 B.1.617.2 Spike Protein …. Described as above.
In assay [27] the target is T5, SARS-CoV-2 C.37 Spike His Protein (R&D, …). Described as above. This is another data set of the same source.
Assay [28] has as its target T1, SARS-CoV-2 B.1.1.529 Spike Protein …. Put plainly: competition ELISA: blocks biotin-ACE2 binding to coated spike.
In assay [29] the target is T7, SARS-CoV-2 B.1.617.2 Spike Protein …. The assay is described as above.
Assay [30] addresses T8, SARS-CoV-2 AY.1 Spike Protein (R&D, …). Description: direct ELISA on coated spike. This is another data set of the same source.
For assay [31] the target is unchanged. Put plainly: competition ELISA: blocks biotin-ACE2 binding to coated spike. The source holds these as a separate data set.
The target in assay [32] is T7, SARS-CoV-2 B.1.617.2 Spike Protein …. Described as above. This is another data set of the same source.
The target of assay [33] is T5, SARS-CoV-2 C.37 Spike His Protein (R&D, …). Described as above. This is another data set of the same source.
The target of assay [34] is T6, SARS-CoV-2 Spike Protein, wild type …. Described as above. This is another data set of the same source.
Assay [35] has as its target T1, SARS-CoV-2 B.1.1.529 Spike Protein ….
Assay [36] has the same target. The source holds these as a separate data set.

Read-outs that look alike come from different tables or passages of the source.

B1: anti-SARS-CoV-2 antibody clone R3-1a-1 (antibody, V domains shown)
VH: QVQLVQSGAEVKKPGSSVKVSCKASGGTFSSYAISWVRQAPGQGLEWMGGIIPILGIANYAQKFQGRVTITADKSTSTAYMELSSLRSEDTAVYYCARDGGGSSGYHDYWGQGTLVTVSS
VL: NFMLTQPHSVSESPGKTVTISCTRSSGSIASKYVQWYQQRPGNSPTTVIYEDDQRPSGVPDRFSASIDSSANTASLTISGLKPEDEADYYCQSYDDNTAVFGGGTHLTVLG
Consider B1, for which the Kd in [1] is 10.3 nM; in assay [2], 4.36 nM; in [3] it was 12.5 nM. In addition, the binding result in [4] is on record as “no binding (tested: 30 nM (printed 30nm))”.

B2: Imdevimab (antibody, V domains shown)
VH: QVQLVESGGGVVQPGRSLRLSCAASGFTFSNYAMYWVRQAPGKGLEWVAVISYDGSNKYYADSVKGRFTISRDNSKNTLYLQMNSLRTEDTAVYYCASGSDYGDYLLVYWGQGTLVTVSS
VL: QSALTQPASVSGSPGQSITISCTGTSSDVGGYNYVSWYQQHPGKAPKLMIYDVSKRPSGVSNRFSGSKSGNTASLTISGLQSEDEADYYCNSLTSISTWVFGGGTKLTVLG
With B2, the EC50 in assay [5] is 0.0681 nM; in assay [6], 0.0734 nM; in [12], 0.0642 nM. Also, the values for the Kd in assay [7], in assay [8] and in assay [9] were 0.305 nM, 2.32 nM and 0.563 nM, respectively. Moreover, the half-maximal inhibitory concentration (IC50) in assay [10] came out at 3.77 nM; in assay [11], 4.85 nM; in assay [13], 4.82 nM; in [14], 1.18 nM; in assay [15], 0.697 nM; in assay [16], 3.25 nM.

B3: anti-SARS-CoV-2 antibody clone R4-1a-10 (antibody, V domains shown)
VH: QVQLQQWGAGLLKPSETLSLTCAVYGGSFSGNYWSWIRQPPGKGLEWIGEINHSGSTNYNPSLKSRVTISVDTSKNQFSLKLSSVTAADTAVYYCARGLLDYWGQGTLVTVSS
VL: QSVLTQPSSVSAAPWQRVTISCSGSDSNIGNNPVNWYQHVPGKAPTLLIYYDNFLASKISDRFSGSKSGTSASLAISGLQSDDEADYYCASWDDSLNGVVFGGGTKLTVLR
With B3, the EC50 in assay [17] amounted to 0.0806 nM; in [20], 0.479 nM; in assay [21], 1.99 nM; in assay [22], 0.0369 nM; in [30], 0.0407 nM. The IC50 in assay [18] turned out to be 73.8 nM; in assay [19], 77 nM; in assay [28] it was 1.86 nM; in assay [29], 2.12 nM; in [31], 0.738 nM. For the same molecule, the Kd in assay [1] worked out at 6.86 nM; in [23], 1.87 nM; in [24], 1.79 nM; in assay [25], 0.571 nM; in assay [26], 2.34 nM; in assay [27] it was 1.01 nM. Besides, the results for the Kd in [2] and in assay [3] were 3.23 nM and 7.86 nM, respectively.

B4: anti-SARS-CoV-2 antibody clone R4-11 (antibody, V domains shown)
VH: QVQLVQSGAEVKKPGSSVKVSCKASGGAFSSYAISWVRQAPGQGLEWMGRIIPILGIANYAQKFQGRVTITADKSTSTAYMELSSLRSEDTAVYYCAGGSGYYYWGQGTTVTVSS
VL: QSVLTQPPSVSEAPGQRVTISCSGSSSNIANNAVNWYQQLPGQAPKLLIFYDDLLPSWVSDRFSGSKSGTSASLAISGLQSEDEADYYCAAWDDSLNGPVFGGGTKLTVLR
For the molecule B4, the IC50 in assay [32] amounted to 1.14 nM; in assay [33] it was 1.8 nM; in [34] it was 3.99 nM; in assay [31], 0.787 nM; in assay [36], 24 nM. Also, the half-maximal effective concentration (EC50) in assay [20] was determined as 0.0622 nM; in assay [21] it was 0.0677 nM; in assay [22], 0.0559 nM; in assay [30], 0.0905 nM; in assay [35], 100 nM. The equilibrium dissociation constant (Kd) in assay [23] was 4.05 nM; in assay [24], 2.29 nM; in assay [25], 7.93 nM; in [26], 1.53 nM; in assay [27] it was 1.23 nM.
